For assay [1], the system named is CD39 and CD73 regulatory T cell expression. The experiment in a line: Blocking of CD39 and CD73 regulatory T cell expression. The assay is classed as cell-based. Here is the method: The present studies developed and characterized two anti-FGL2 monoclonal antibodies, F48 and F59. […] The effects of the anti-FGL2 antibodies were evaluated alone and in combination with other anti-cancer therapies such as anti-PDL1 antibody and chemotherapy on several mouse tumor models, including glioblastoma, melanoma, and lung cancer.

The test system of assay [2] is GL261 glioblastoma cells. In words: GL261 glioblastoma subcutaneous mouse model, M2 cell population in tumors. The settings on record: 100 μg antibody i.v. every 3 days, from 5-7 days after s.c. GL261 inoculation; vs IgG control. Format: in vivo, mice. The text has this: FIGS. 1A-1C: (FIG. 1A) FGL2 expression in normal brain and GBM tissue shown by immunohistochemistry. Increased staining is observed in the glioma tissues. (FIG. 1B) Flow cytometry analysis for the expression of F4/80 and CD206 in glioblastoma tumor cells treated with IgG control or F48 anti-FGL2 antibody. (FIG. 1C) Percentage of M2 macrophages in the glioblastoma tumors treated with IgG control or F48 anti-FGL2 antibody.
To screen for the anti-FGL2 antibody F48 function in mice, GL261 glioblastoma cells (1×10^5 in 30 μL) were injected into the back of mice by subcutaneous injection. The first treatment with antibody comprised 100 μg antibody by intravenous injection starting at about 5-7 days after tumor inoculation. The antibody treatment was repeated every 3 days and the mice were sacrificed at about 14-21 days.

Assay [3] deals with glioma GL261 tumors. The experiment in a line: Mouse glioma GL261 tumor model, alone or with temozolomide. The assay is classed as in vivo. The settings on record: 20 mg/kg TMZ + 200 μg antibody. The protocol:
FIGS. 3A-3C: (FIG. 3A) Percent survival of glioma GL261 tumors treated with temozolomide (TMZ) in combination with IgG, F59, anti-PDL1, or F48. […] Western blot analysis of FLG2 expression with various antibodies. FGLS expression is reduced in tumors treated with anti-FGL2 antibodies. (FIG. 3C) Percent survival of mice inoculated with GL261 and treated with IgG control or F59.
Next, the effect of the combination of temozolomide (TMZ) and anti-PDL1+anti-FGL2 antibody was determined on the mouse glioma GL261 tumor model progression in vivo.
Percent survival of glioma GL261 tumors treated with temozolomide (TMZ) in combination with IgG, F59, anti-PDL1, or F48 (FIG. 3).

In assay [4] the test system is OT-I T cells. The experiment in a line: Activation-induced OT-I T cell proliferation. Format: cell-based. The settings on record: OT-I T cells activated with αCD3/CD28, with or without OVA peptide. The text has this: OT-I T cells were activated with αCD3/CD28 and then divided into different dishes to check the proliferation in the absence or presence of +OVA peptide (pep), absence or presence FGL2 mAb F48, and co-absence or presence of F48. Cell numbers were counted on different days.

The subject of assay [5] is FGL2. In words: Cross-species binding of anti-FGL2 antibodies. The source says: In particular embodiments, the anti-FGL2 monoclonal antibodies provided herein are the F48 and F59 antibodies. […] Given that the combination of CD39 and CD73 degrade ATP, ADP, and AMP to adenosine, they can be viewed as “immunological switches” that shift ATP-driven pro-inflammatory immune cell activity toward an anti-inflammatory state mediated by adenosine. CD39 and CD73 both play a role in regulating the function of several immune cell types, including lymphocytes, neutrophils, monocytes/macrophages, dendritic cells, and endothelial cells (Antonioli et al., 2013).

B1: F48: anti-FGL2 monoclonal antibody of hybridoma clone F48; heavy chain SEQ ID NO:2, light chain SEQ ID NO:4 (antibody, V domains shown)
VH: MGWSCIILFLVATATGVHSQVQLQQPGAELVKPGASVKLSCKASGYTFASYWMQWVKQRPGQGLEWIGEIDPSDSYTNYNQKFKGKATLTVDTSSNTAYMQLSSLTSEDSAVYYCARNGNYYGSTYDYWGQGTTLTVSS
VL: MMSSAQFLGLLLLCFQGTRCDIQMTQTTSSLSASLGDRVTISCRASQDVSNYLNWYQQKPDGSVKLLIYYTSRLHSGVPSRFSGSGSGAHYSLTISNLEQEDIATYFCQQGNTLPPWTFGGGTKLEIK
As for B1, the “block CD39 and CD73 regulatory T cell expression” value in assay [1] is “able to block CD39 and CD73 regulatory T cell expression”. Further, the “percentage of M2 cell population in the tumors” value in assay [2] is “suppression of the percentage of M2 cell population in the tumors”. In assay [3], the percent survival result was “significantly improve glioma survival”. Also, the “activation-induced T cell growth (cell numbers)” value in assay [4] was “promote activation-induced T cell growth”. Besides, the cross-species binding entry in assay [5] is reported as “share the property of cross-species binding”.

Source of the values: patent US11512141B2, “Fibrinogen-like protein 2 (FGL2) monoclonal antibodies and their use in cancer detection and treatment” (Board of Regents, The University of Texas System, priority 2017, dated 2022).
